Measurements published in PMC2588538, “Structure of Reovirus σ1 in Complex with Its Receptor Junctional Adhesion Molecule-A” (PLoS Pathogens, 2008).

B1: σ1 of reovirus strain rsT3D-σ1T249I (parent), on purified virions [mammalian orthoreovirus, strain type 3 Dearing (T3D)] / GST-JAM-A ectodomain fusion protein [not stated] (parent complex)
chain 1: MDPRLREEVVRLIIALTSDNGASLSKGLESRVSALEKTSQIHSDTILRITQGLDDANKRIIALEQSRDDLVASVSDAQLAISRLESSIGALQTVVNGLDSSVTQLGARVGQLETGLAELRVDHDNLVARVDTAERNIGSLTTELSTLTLRVTSIQADFESRISTLERTAVTSAGAPLSIRNNRMTMGLNDGLTLSGNNLAIRLPGNTGLNIQNGGLQFRFNTDQFQIVNNNLTLKTTVFDSINSRIGAIEQSYVASAVTPLRLNSSTKVLDMLIDSSTLEINSSGQLTVRSTSPNLRYPIADVSGGIGMSPNYRFRQSMWIGIVSYSGSGLNWRVQVNSDIFIVDDYIHICLPAFDGFSIADGGDLSLNFVTGLLPPLLTGDTEPAFHNDVVTYGAQTVAIGLSSGGAPQYMSKNLWVEQWQDGVLRLRVEGGGSITHSNSKWPAMTVSYPRSFT
chain 2: SVTVHSSEPEVRIPENNPVKLSCAYSGFSSPRVEWKFDQGDTTRLVCYNNKITASYEDRVTFLPTGITFKSVTREDTGTYTCMVSEEGGNSYGEVKVKLIVLVPPSKPTVNIPSSATIGNRAVLTCSEQDGSPPSEYTWFKDGIVMPTNPKSTRAFSNSSYVLNPTTGELVFDPLSASDTGEYSCEARNGYGTPMTSNAVRMEAVERNVGV

Variants of: B1
Assay: SPR; 8×1012 (orange) particles/ml virus; GST-JAM-A captured on biosensor surface; parent: 98; read off a plot
In the case of chain 1 N369A, the response is reported as ~25 RU.
